The target in the experiment is soluble His-tagged Apo-2L (UniProt P50591). As to the kind of experiment: KinExA; column head 'Affinity (pM)'.
UniProt P50591, sequence (P50591 114-281 limits assumed): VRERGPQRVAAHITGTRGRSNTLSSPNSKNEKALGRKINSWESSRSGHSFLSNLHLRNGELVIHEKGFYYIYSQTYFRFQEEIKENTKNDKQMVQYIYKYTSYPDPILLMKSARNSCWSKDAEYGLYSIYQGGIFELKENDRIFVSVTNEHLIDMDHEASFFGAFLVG

Usually Kd stands for the equilibrium constant for the complex coming apart. Read a low Kd as a tighter complex. In turn, DR5-IgG (Fc fusion) returned a Kd of 1 pM.

Values taken from US20040120947A1.
